Measurements published in article PMC9687583.

Target: T1, Human C-C motif ligand 16 (CCL16) (human), O15467
T1 chain: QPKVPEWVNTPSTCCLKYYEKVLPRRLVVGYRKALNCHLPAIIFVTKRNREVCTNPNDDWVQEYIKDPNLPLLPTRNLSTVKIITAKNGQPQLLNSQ
Test: SEC; HiLoad 26/60 Superdex 75 pg; 50 mM sodium dihydrogen phosphate, 500 mM sodium chloride, 10% (v/v) glycerol, pH 8.0; apparent mass after calibration with standard proteins in the same buffer
Conditions: remark: other sources report otherwise

stoichiometry N: 2
B1: Human C-C motif ligand 16 (CCL16), O15467 24-120 (natural protein)
chain: QPKVPEWVNTPSTCCLKYYEKVLPRRLVVGYRKALNCHLPAIIFVTKRNREVCTNPNDDWVQEYIKDPNLPLLPTRNLSTVKIITAKNGQPQLLNSQ
modifications: here or on the partner: two intramolecular disulphide bonds (confirmed by CE-MS and electron density); two intramolecular disulphide bonds (confirmed by CE-MS and electron density)
